Assay: soluble on expression in E. coli; label from the status in PepcDB or PDB records

| Sequence | soluble on expression in E. coli |
| --- | --- |
| MGSDKIHHHHHHMTISQQAVLAATAITKTFGAHVALHTIDIAFRPGEVHALLGENGAGKSTLIKILTGAYTPDAGTVLVDGAPMSFSTPQQAQAAGIGTVYQEVNLLTNMTVADNLFIGRQPRRFGLVDHRTMEREARRILSGYGLDIDVRAELATFSVAVQQIIAIARAVELSGKVLILDEPTASLDRSEVLKLFEIVRGLKARGLAIVFITHFLDQVFELCDHATVLRNGKLVGSQPIDTLNRTTLVRMMLGKDLSLHHDAVAGIEAEVGESLMQFTGYGLDGKVQPFTLTIHKGEVIGVAGLLGSGRTEMARLMFGIDSADKGELTLNGASFKIRSPRQAIDLGFGFCPEDRKADGIFGDLSVRENIIIAMQAKLGWLRTLSYDEQMEIAGQFIEALDIRTASAELPIKLLSGGNQQKAILARWLATDPRFLILDEPTRGIDVGAHAEIVRMISRLREDGLALIVISSELDEVVSYSSRIVVMRDRAMVAELHGADIAPDVIVQTIAAQSNTPAQSEGAFS | not soluble |
| MGSDKIHHHHHHMDLDRIKGEIVAFVEGRKSEFAAIAEDLYLHPETGLNEVRSSALLADFLEREGFRVERGIAGLPTAFRAETGEGGPVIAFMAEMDALPVMGHACGHNVIAAAAVGAATALRSILPPDAARIVVLGTPAEEMGIGKVDMIANGAFDGVEFALMVHPSSRRYVIKHYLGLARVRFTFFGKPAHAAAYPEEGINALDGVIQTFNGISALRQQLRQDVRVHGIITEGGVAPNIIPERASAHFYVRADDLAELERAKARVLACAEGAALATGCRLQVDADPRIMAPLKVNRIFSDLYSAQLAYLDLQESENQPDKNKGSSDIGNVSQIVPTIHPHVPIGDGINIHSEAFARATVSGKGKAAVAEGATALALTAAELAARPDIREEIWREFRS | not soluble |
| ENKILKIEKGTSGWGGPLYIKKEGNRNKILSMTAGGIHEVTLKIKELLGCEIVDGFKTGVSDEEVAVVIIDCGGTARCGVYPKKKIPTINVNPVGKTGPLAKFITEEYYVSDVNPNCISVVDGEDMPQKSQENKSENKSSIRKPDNYDEVKSKAQGEYAKKNIILSIGQGAGQVVSKFYDAGRDTIQMVMNN | not soluble |
| MKTLGEFIVEKQHEFSHATGELTALLSAIKLGAKIIHRDINKAGLVDILGASGAENVQGEVQQKLDLFANEKLKAALKARDIVAGIASEEEDEIVVFEGCEHAKYVVLMDPLDGSSNIDVNVSVGTIFSIYRRVTPVGTPVTEEDFLQPGNKQVAAGYVVYGSSTMLVYTTGCGVHAFTYDPSLGVFCLCQERMRFPEKGKTYSINEGNYIKFPNGVKKYIKFCQEEDKSTNRPYTSRYIGSLVADFHRNLLKGGIYLYPSTASHPDGKLRLLYECNPMAFLAEQAGGKASDGKERILDIIPETLHQRRSFFVGNDHMVEDVERFIREFPDA | soluble |
| MGHHHHHHSHMTLVLSMNRFCEPIVSEGAAEIAGYQTLWEADSYGGPSPPGPAQAPLQGDRGAGPPLAGSHYRGISNPITTSKITYFKRKYVEEEDFHPPLSSCSHKEQSRGQLVEDMTIKRHQLRNKYKTRIQGFLCDAARFLYPSNKCICDRLKNDD | not soluble |
| MPPPTNQFKHDNIPLQTQGCEINVLCVRNPRARRIKLSVDERGVRLILPPCADLDAGTRFLLEQRAWIETQMARYASGTAATIPLRRGETTALPLRDQQLPLHWHESRYTRLELDAHGLQFYITTHTNDNTLRHTLREFYEVQARVDISDWLRKYLPGLPRPPTRVRLKPMSSQWGSLATAGHMALDLALVLGRPSAFEYVVVHELCHLIQANHSPAFWREVECRFPLWREERDYFHLKGRILKAQLRRLLQTELEHHHHHH | not soluble |
| MSRFAPATPLLLSLLLTSCSPAQGVRVERITGGGMLYTVATVDPARDQLTLHWLNPATGKPYSSFAQLGSRLGKQGKKLLFATNSGIYMPGPKPLGLHVEGGKTLVGLNNAGKGGGNFALLPNGVFWLRGKKAGVTETQAYRKLGLAPDYATQSGPLLVANGKLHPDFNKSGTSFKVRSGVGVCGGGKVRFAISAGPVNFYSFATFFRDTLGCPDALYLDGSISAYATPDTDTQFTEFAGIWAVTARLEHHHHHH | soluble |
| MGSDKIHHHHHHMEGGAMMLLEVKNVTKKFGDKVVLKNISFTLEEGESLGILGKSGAGKSVLLHMLRGMDGYEPTEGQIIYHVSYCEKCGYVDVPSKAGTPCKKCGNELKKIEVDFWNDKKYTYNLKRKIAIMLQRTFALYGEKTVLENILEALHQAGYEGKEAIDMALKLIKMVKLEHRITHIARDLSGGEKQRVVLARQIAKEPFIFLADEPTGTLDPQTAKLVHSALKELVIKNKISLILTSHWPEVIAELTEKAIWLDKGEIIMEGTSEEVVNKFMETVKEFKKPETEVEIKEDIIKLENVSKHYCSVERGVIKAVDNVTLNIREREIFGLVGTSGAGKTTLAKIIAGVLPPSKGKYWFRVGDEWVDMTKPGPMGRGRAKRYIGILFQEYALYPHRTILENLTEAIGLELPDEFARMKAVYTLVSVGFSEEEAEEILDKYPHELSVGERHRCALAQVLIKEPRVVILDEPTGTMDPITRNTVAESIHKSRIELEQTYIIVSHDMDFVLNVCDRAGLMRNGKLIKVGKPEEIVALLTEEEKQEMFGQK | not soluble |
| MGSDKIHHHHHHMTAPMPNLGAVFDTVDPAMAHLAARIDRLILAIDAALTRQLNAILAASEFRALEARWRALDRVLTHAGRDGQVIVRILNVSWRALSRDLDRAVEFDQSHLHKLVYDGEFGMPGGLPFGVLVADYEVSATTDRARGDQVETLSRLAAVAAAAFCPIMLGAAPDLLGVDDFDQIAPYTDLTDAEGRRADPPMIRWRALRDRDDARFIGLVAPRIVLRGPRTRLSPTRADGFTFDEDPHRILSVAGSFAFATTVIAAFRASGWFAAIRGAAQDTDGGGRVAGWPGHDLGTDGHNLSRQSPATLRLTAAQEDALIARGIVPLSSLPLTDEAVFNANPSLHRPTRYDSPVASENARISAMLQYVLCTSRFAHYLKVMMREAIGSVAPPDVIQGHLDDWLRGYCLGNEDAGAELKAEYPLRNAGVEVTPIPGKPGAFAARIHLQPHFQLDDISTSFHLVSEAPAGLERTSA | not soluble |
| MIRMSVLASGSTGNATYVESDKGSILVDAGLTGKKMEELFGQIDKQIQNLNGILVTHEHSDHIKGLGVLARKYKLPIYANEKTWTAIEKKDSKIPMDQKFIFNPYETKSLAGFDIESFNVSHDAIDPQFYIFHNNYKKFTILTDTGYVSDRMKGMIQGSDAFVFESNHDVDMLRMCGYPWKTKQRILSDMGHVSNEDAGRAMTDVITGSTKRIYLSHLSQDNLEHHHHHH | not soluble |
| MDINKMTYAVQSALQQAVELSQQHKLQNIEIEAILSAALNESESLYKSILERANIEVDQLNKAYEDKLNTYASVEGDNIQYGQYISQQANQLITKAESYMKEYEDEYISMEHILRSAMDIDQTTKHYINNKVEVIKEIIKKVRGGNHVTSQNPEVNYEALAKYGRDLVEEVRQGKMDPVIGRDEEIRNTIRILSRKTKNNPVLIGEPGVGKTAIVEGLAQRIVKKDVPESLLDKTVFELDLSALVAGAKYRGEFEERLKAVLKEVKESDGRIILFIDEIHMLVGAGKTDGAMDAGNMLKPMLARGELHCIGATTLNEYREYIEKDSALERRFQKVAVSEPDVEDTISILRGLKERYEVYHGVRIQDRALVAAAELSDRYITDRFLPDKAIDLVDQACATIRTEMGSNPTELDQVNRRVMQLEIEESALKNESDNASKQRLQELQEELANEKEKQAALQSRVESEKEKIANLQEKRAQLDESRQALEDAQTNNNLEKAAELQYGTIPQLEKELRELEDNFQDEQGEDTDRMIREVVTDEEIGDIVSQWTGIPVSKLVETEREKLLHLSDILHKRVVGQDKAVDLVSDAVVRARAGIKDPNRPIGSFLFLGPTGVGKTELAKSLAASLFDSEKHMIRIDMSEYMEKHAVSRLIGAPPGYIGHDEGGQLTEAVRRNPYSVILLDEVEKAHTDVFNVLLQILDEGRLTDSKGRSVDFKNTIIIMTSNIGSQVLLENVKETGEITESTEKAVMTSLNAYFKPEILNRMDDIVLFKPLSIDDMSMIVDKILTQLNIRLLEQRISIEVSDDAKAWLGQEAYEPQYGARPLKRFVQRQIETPLARMMIKEGFPEGTTIKVNLNSDNNLTFNVEKIHE | not soluble |
| LVFDEEGNSSWIATDTVKVAASRPVELNPFYIDTVYEVSGKKIAYMVYNEFSTGPNNQATDTEYREQMKQIFARFKGQSPDAFILDLRYNPGGYLSCATDLGSYLAPAADLGKVFCTTLYNDISDPQKIDFPLNTGLASENLNLSKLYVLTSKFTASASEAVINCLRPYIGTENVVVIGETTVGKNVAMEPYQDERYNFILWPVVAYVLNSAGQANYVNGITPDFTLSER | not soluble |
| MNPERSERIEIPVLPLRDVVVYPHMVIPLFVGREKSIRCLEAAMDHDKKIMLVAQKEASTDEPGVNDLFTVGTVASILQMLKLPDGTVKVLVEGLQRARISALSDNGEHFSAKAEYLESPTIDEREQEVLVRTAISQFEGYIKLNKKIPPEVLTSLNSIDDPARLADTIAAHMPLKLADKQSVLEMSDVNERLEYLMAMMESEIDLLQVEKRIRNRVKKQMEKSQREYYLNEQMKAIQKELGEMDDAPDENEALKRKIDAAKMPKEAKEKAEAELQKLKMMSPMSAEATVVRGYIDWMVQVPWNARSKVKKDLRQAQEILDTDHYGLERVKDRILEYLAVQSRVNKIKGPILCLVGPPGVGKTSLGQSIAKATGRKYVRMALGGVRDEAEIRGHRRTYIGSMPGKLIQKMAKVGVKNPLFLLDEIDKMSSDMRGDPASALLEVLDPEQNVAFSDHYLEVDYDLSDVMFVATSNSMNIPAPLLDRMEVIRLSGYTEDEKLNIAKRHLLPKQIERNALKKGELTVDDSAIIGIIRYYTREAGVRGLEREISKLCRKAVKQLLLDKSLKHIEINGDNLHDYLGVQRFDYGRADNENRVGQVTGLAWTEVGGDLLTIETACVPGKGKLTYTGSLGEVMQESIQAALTVVRARAEKLGINPDFYEKRDIHVHVPEGATPKDGPSAGIAMCTALVSCLTGNPVRADVAMTGEITLRGQVLPIGGLKEKLLAAHRGGIKTVLIPFENKRDLEEIPDNVIADLDIHPVKRIEEVLTLALQNEPSGMQVVTAK | not soluble |
| MRGSHHHHHHGSPYNVMIVDDAAMMRLYIASFIKTLPDFKVVAQAANGQEALDKLAAQPNVDLILLDIEMPVMDGMEFLRHAKLKTRAKICMLSSVAVSGSPHAARARELGADGVVAKPSGTVSHDLEEKTGGELARTMRTLMAA | soluble |
| MIELIDPISKQRLEESPEGLRNENGIVVYPLINGAYRVAASDNYTSNFGLEWNTFQKTQIDKFSGNTVSEERLFAQTNWQKNGLEGETILEVGSGAGRFSQIMLDHTKATLYSVDYSEAVEANYRNNGPHERFKLFQASIYELPFKQASFDRVICLGVLQHTPDFKASVKALVEMVKPGGELVIDFYPIRNVFTKVHGKYLLRPILKRVNHHRLMSLIRNNIDFLISIYTFNRRIGLGVFNRFVPICEIERTLPKGMTPEQLKEWIILDTFDMFSPEYDQPQRLSTVAKWVKEFGMADVDASWVTYHGKLEAPTVRGRKVLEHHHHHH | soluble |
| MAAQKKIPLRKCVVTGEMKPKREMVRIVRSKEGEVSIDPTGKKAGRGAYITLDPECILQAKKKNILARHLKADIDDAIYDELLALAEKEKQAGHEA | soluble |
| MGYRIEMATRNPFDIDHKSKYLREAALEANLSHPETTPTMLTCPIDSGFLKDPVITPEGFVYNKSSILKWLETKKEDPQSRKPLTAKDLQPFPELLIIVNRFVETQTNYEKLKNRLVQNARVAARQKEYTEIPDIFLCPISKTLIKTPVITAQGKVYDQEALSNFLIATGNKDETGKKLSIDDVVVFDELYQQIKVYNFYRKREMQKNQIQPSVSSGFGFFSLNFLTSWLWGTEEKKEKTSSDMTY | not soluble |
| MIKILDASAFIHGYNPSIEDGEHYTTNGIVSEVVSKEDIVKLAIEYGKLKILDPKPETIEKVVKTSIETGDTISNNDIEILALAIDLGGTLYTDDYGLQNVSKKLKINYENIVSAGSKDDFVWKKICKGCKKMYPINYLDEECEVCGSPLYRKMVKNRLKKGKKFYDKKKKPKKLFLEHHHHHH | soluble |

From the DeepSol protein solubility set
